± gives the uncertainty stated by the source.
Test: self-splicing fitness, log relative to wild type (ln ratio); higher = more splicing; Tetrahymena group I intron in knt gene, E. coli kanamycin selection, DiMSum; sequences stand for … in CUCUCU…GGAGGGAAAAGUUAUCAGGCAUGCACCUGGUAGCUAGUCUUUAAACCAAUAGAUUGCAUCGGUUUAAAAGGCAAGACCGUCAAAUUGCGGGAAAGGGGUCAACAGCCGUUCAGUACCAAGUCUCAGGGGAAACUUUGAGAUGGCCUUGCAAAGGGUAUGGUAAUAAGCUGACGGACAUGGUCCUAACCACGCAGCCAAGUCCUAAGUCAACAGAUCUUCUGUUGAUAUGGAUGCAGUUCACAGACUAAAUGUCGGUCGGGGAAGAUGUAUUCUUCUCAUAAGAUAUAGUCGGACCUCUCCUUAAUGGGAGCUAGCGGAUGAAGUGAUGCAACACUGGAGCCGCUGGGAACUAAUUUGUAUGCGAAAGUAUAUUGAUUAGUUUUGGAGUACUCGUGGUCG
In short: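 Fitness was computed with DiMSum as the error-weighted combination of replicate fold changes, kanamycin versus none, each normalised to wild type. The library randomised all eight intron nucleotides of the P1ex region, with the intron placed in the knt kanamycin-resistance gene on pET-22b(+) in E. coli BL21(DE3). Six replicate transformations were grown overnight at 37°C or 30°C on LB agar with or without 25 μg/mL kanamycin, plus 100 μg/mL carbenicillin, 50 μM IPTG and 0.2% rhamnose. Pooled colonies were amplicon-sequenced on an Illumina HiSeq 2500.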

Sequence | self-splicing fitness (ln) (30 °C) | self-splicing fitness (ln) (37 °C)
GCGGAGCAAUAUUACGUAGU | -2.12 ± 0.23 | 0.836 ± 0.34
GCGGAGCAAUAUUACGUGAG | -2.51 ± 0.12 | -2.01 ± 0.15
GCGUAGCAAUAUUACGAAAC | -0.751 ± 0.25 | -0.283 ± 0.4
GCGUAGCAAUAUUACGACCA | -1.52 ± 0.17 | -0.255 ± 0.16
GCGUAGCAAUAUUACGACCU | -0.0292 ± 0.22 | -0.575 ± 0.34
GCGUAGCAAUAUUACGACGU | -3.1 ± 0.16 | -1.45 ± 0.28
GCGUAGCAAUAUUACGAGAA | -1.15 ± 0.29 | -1.9 ± 0.2
GCGUAGCAAUAUUACGCAAC | -3.87 ± 0.18 | -2.33 ± 0.17
GCGUAGCAAUAUUACGCAGG | -3.66 ± 0.47 | -3.54 ± 0.33
GCGUAGCAAUAUUACGCAUG | – | -2.21 ± 0.23
GCGUAGCAAUAUUACGCGAU | -2.83 ± 0.26 | -2.31 ± 0.26
GCGUAGCAAUAUUACGCUGG | -2 ± 0.18 | -2.12 ± 0.32
GCGUAGCAAUAUUACGGACC | -2.2 ± 0.24 | -2.35 ± 0.35
GCGUAGCAAUAUUACGGAGC | -4.23 ± 0.28 | -3.03 ± 0.35
GCGUAGCAAUAUUACGGCAC | -0.32 ± 0.17 | -0.367 ± 0.22
GCGUAGCAAUAUUACGGCGU | -4.1 ± 0.37 | -2.07 ± 0.28
GCGUAGCAAUAUUACGGGAG | – | -2.28 ± 0.35
GCGUAGCAAUAUUACGGUCU | -0.587 ± 0.091 | -0.159 ± 0.1
GCGUAGCAAUAUUACGUCAA | – | -2.38 ± 0.32
GCGUAGCAAUAUUACGUGCC | -3.08 ± 0.25 | -2.83 ± 0.44
GCUAAGCAAUAUUACGAAUC | 0.136 ± 0.29 | -0.437 ± 0.35
GCUAAGCAAUAUUACGACAU | -0.734 ± 0.013 | -0.156 ± 0.033
GCUAAGCAAUAUUACGACCC | -0.411 ± 0.11 | 0.239 ± 0.14
GCUAAGCAAUAUUACGACCU | -0.833 ± 0.1 | 0.599 ± 0.12

Sequence | self-splicing fitness (ln) (30 °C) | self-splicing fitness (ln) (37 °C)
GCUAAGCAAUAUUACGACUG | -0.97 ± 0.1 | -0.946 ± 0.14
GCUAAGCAAUAUUACGAGCC | -3.9 ± 0.2 | -2.33 ± 0.33
GCUAAGCAAUAUUACGAGUC | -3.37 ± 0.21 | -1.96 ± 0.22
GCUAAGCAAUAUUACGAUAG | -1.25 ± 0.13 | -1.63 ± 0.17
GCUAAGCAAUAUUACGAUGA | -0.837 ± 0.09 | -0.253 ± 0.1
GCUAAGCAAUAUUACGCACA | -0.938 ± 0.098 | -0.709 ± 0.11
GCUAAGCAAUAUUACGCGGG | -3.54 ± 0.2 | -0.902 ± 0.13
GCUAAGCAAUAUUACGCUAG | -2.94 ± 0.35 | -3.64 ± 0.4
GCUAAGCAAUAUUACGCUGG | -4.23 ± 0.24 | -2.76 ± 0.26
GCUAAGCAAUAUUACGGCAA | -2.17 ± 0.21 | -0.981 ± 0.16
GCUAAGCAAUAUUACGGGUC | -2.55 ± 0.17 | -1.89 ± 0.15
GCUAAGCAAUAUUACGGGUU | -2.18 ± 0.09 | -1.28 ± 0.089
GCUAAGCAAUAUUACGGUAU | -0.915 ± 0.083 | -0.555 ± 0.1
GCUAAGCAAUAUUACGGUGA | -0.864 ± 0.073 | -0.0497 ± 0.077
GCUAAGCAAUAUUACGUAUC | -0.952 ± 0.082 | -0.277 ± 0.1
GCUAAGCAAUAUUACGUGGA | -2 ± 0.093 | -1.7 ± 0.092
GCUAAGCAAUAUUACGUGGU | -3.27 ± 0.19 | -2.5 ± 0.18
GCUAAGCAAUAUUACGUGUG | -1.22 ± 0.079 | -0.636 ± 0.098
GCUAAGCAAUAUUACGUUGU | -2.7 ± 0.11 | -2.43 ± 0.13
GCUCAGCAAUAUUACGAACC | -1.34 ± 0.22 | 0.355 ± 0.23
GCUCAGCAAUAUUACGACAG | -3.53 ± 0.21 | -2.28 ± 0.22
GCUCAGCAAUAUUACGACUC | -0.0981 ± 0.14 | 0.646 ± 0.14
GCUCAGCAAUAUUACGAGCA | -2.63 ± 0.16 | -1.09 ± 0.11
GCUCAGCAAUAUUACGAUCU | -0.418 ± 0.094 | -0.185 ± 0.099

Reference: the supplement of paper PMC7877785
